# Measurements: publication PMC7314397 (Protein Science : A Publication of the Protein Society, 2020)
# T1: Homo sapiens NCBD (nuclear coactivator binding domain) from CREBBP (Homo sapiens (human), UniProt Q92793 2061-2109)
# T1 chain: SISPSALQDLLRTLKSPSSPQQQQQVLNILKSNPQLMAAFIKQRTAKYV
# Key:
# Test in all cases: ITC
# [1] = biological target: Strongylocentrotus purpuratus NCBD (nuclear coactivator binding domain of CREBBP/p300) (Strongylocentrotus purpuratus (purple sea urchin))
# [2] = biological target: Homo sapiens NCBD (nuclear coactivator binding domain) from CREBBP (Homo sapiens (human)) (UniProt Q92793)
# [3] = biological target: Petromyzon marinus NCBD (nuclear coactivator binding domain of CREBBP/p300) (Petromyzon marinus (sea lamprey))
# [4] = biological target: T1, Homo sapiens NCBD (nuclear coactivator …)
Kd [1] [µM],Kd [3] [µM],Molecule,other results
7 to 22,,Strongylocentrotus purpuratus CID (CREBBP-binding domain of NCOA) (domain or fragment),stoichiometry N [1]: 1.7; Kd [2]: 4.8 µM
,0.2,"Petromyzon marinus CID, from the first of the two NCOA proteins (domain or fragment)",
13,,Homo sapiens CID (CREBBP-binding domain) from NCOA3 (ACTR) (from UniProt Q9Y6Q9 1045-1086) (domain or fragment),

# The next lines start with the molecule.
Molecule,Kd [1] [µM],Kd [3] [µM],other results
"Petromyzon marinus CID, from the second of the two NCOA proteins (domain or fragment)",,0.2,
"EGQSDERALLDQLHTLLSNTDATGLEEIDRALGIPELVNQGQ (domain or fragment, Homo sapiens (human)) [Homo sapiens CID (CREBBP-binding domain) from NCOA3 (ACTR)]",,,Kd [4]: 0.4 µM
